# Reference: the DeepSol protein solubility set
# Assay: soluble on expression in E. coli; label from the status in PepcDB or PDB records
row,Sequence,soluble on expression in E. coli
1,MSLMAVNVNTNVAAMTAQRYLTGATNAQQTSMERLSSGFKINSAKDDAAGLQISNRLNVQSRGLDVAVRNANDGISIAQTAEGAMNETTNILQRMRDLSLQSANGSNSKSERVAIQEEITALNDELNRIAETTSFGGNKLLNGTFSTKSFQIGADNGEAVMLTLKDMRSDNRMMGGTSYVAAEGKDKDWKVQAGANDITFTLKDIDGNDQTITVNAKEGDDIEEVATYINGQTDMVKASVNEKGQLQIFAGNNKVTGDVAFSGGLAGALNMQAGTAETVDTIDVTSVGGAQQSVAVIDSALKYVDSHRAELGAFQNRFNHAISNLDNINENVNASKSRIKDTDFAKETTALTKSQILSQASSSVLAQAKQAPNAALSLLG,soluble
2,MSLNPPLPHFRYHPEPLASGSIEASATTCQCCGKARGYVYTGSPYSRHELPPGSLCPWCIADGSAAARYEASFSDDYPLLDAGVAADIVTEVCERTPGYTSWQRERWLVCCEDACAFRGDAGREEIGQLGAEGLAQRFADFAWPAITWQRLVDAYTPGGNPAIYRFDCLHCGQAHYDLDFTEGGSHHHHHH,soluble
3,MTSSTGTRRLTAKGRATRDRIVAAAAQLMYERGVTGTSTEDILKAARVASPSQLYHYFGDKRGLVQAVIEHQTEQVLGFQKPLLSRLDSIEALEAWRDAVVEAQHARDCQGGCPLGSLASELSDLDPQARARLVAGYEQWGNAIREGLRSMRERGELDGGADPDRLALALLTALQGGLLMTQTRRDTIALEAVLNTMIDHIRFRTTP,soluble
4,MTDKTSLSYKDAGVDIDAGNALVGRIKGVVKKTRRPEVMGGLGGFGALCALPQKYREPVLVSGTDGVGTKLRLAMDLKRHDTIGIDLVAMCVNDLVVQGAEPLFFLDYYATGKLDVDTASAVISGIAEGCLQSGCSLVGGETAEMPGMYHGEDYDVAGFCVGVVEKSEIIDGSKVSDGDVLIALGSSGPHSNGYSLVRKILEVSGCDPQTTELDGKPLADHLLAPTRIYVKSVLELIEKVDVHAIAHLTGGGFWENIPRVLPDNTQAVIDESSWQWPEVFNWLQTAGNVEHHEMYRTFNCGVGMIIALPAPEVDKALALLNANGENAWKIGIIKASDSEQRVVIE,soluble
5,MSLTYYDDIRKVQDLHLPWEILTDINILIVGASGLIGRALVDTLMQLPDKTFHLYAGVRDLVYAQSCFMRYKDDESFTLIQCDVTALIPFDIDFHYIIHAASYAGPAAFHNDPVGVMKANILGVDNLFSYGEQHNLRRLLYVSSGEVYGEGNGIPFREEDSGSLDWASLRACYPAAKRTAETLCIAYAAQFQIETVIARPCHIYGPFYTSKDDRAYAQFIRNVLAGENIILRSSGLQQRSWCYVVDCVFALLYVLLKGKTKNAYNIADVRSNVSIREFAEMIALKSEREVIFDLPDNTGKNKPIISQAIFNTEKINKIGWFPQWKLEEGVSHTLNTLISVDGTYEGHITITTDPNSSSVDKLAAALEHHHHHH,soluble
6,MIITIPIKNQKDIGTPSDSVVVLGYFDGIHKGHQELFRVANKAARKDLLPIVVMTFNESPKIALEPYHPDLFLHILNPAERERKLKREGVEELYLLDFSSQFASLTAQEFFATYIKAMNAKIIVAGFDYTFGSDKKTAEDLKNYFDGEVIIVPPVEDEKGKISSTRIRQAILDGNVKEAGKLLGAPLPSRGMVVHGNARGRTIGYPTANLVLLDRTYMPADGVYVVDVEIQRQKYRAMASVGKNVTFDGEEARFEVNIFDFNQDIYGETVMVYWLDRIRDMTKFDSVDQLVDQLKADEEVTRNWS,soluble
7,MGSSHHHHHHGKTIFVIVPTNEEQVAFLEALAKQDELNFDWQNPPTEPGQPVVILIPSDMVEWFLEMLKAKGIPFTVYVEEGGSENLYFQGGGGGGLSLPAFSPHCHSLRLGFHVFRKQRARTKTAAVAEQRGLRWTHTTARTAKSGWPPRGHTDTHTHTHTHTHITWEYASSGMTLVFEARRLPFGSISEVYAASIQPIVALHALDKLPLWDRCMLVAVLPVVQQRHSASAAAAPPSTVVRPSLTRNDSDNADAAAASLSSATVRAANHEERVNASPELAGAPSLEDVALALTIVRALDELEVVYDSSISTRAELEQQQQQQPSLPAASLAEAPRRAFKQPKKTSEELLMEQLLQERFTDTAPYLLESSDEGGENSADAAVDVAMCFTVKGESLGIGSATIFGGHGYHP,not soluble
8,TLTKHEQDILLKELGPHVDTPAHIVETGLGAYHALFTAHPQYISHFSRLEGHTIENVMQSEGIKHYARTLTEAIVHMLKEISNDAEVKKIAAQYGKDHTSRKVTKDEFMSGEPIFTKYFQNLVKDAEGKAAVEKFLKHVFPMMAAEI,soluble
9,MVLTLDLADPAQPEHVFIVEDSRGATELKLYKSHYTIGKADSCDIRLHSIYASRQHATLVRFLTENGEVRYRLIDGDPETSRRSANGTYVNNRSITECDLKHYDQILFGALEHHHHHH,not soluble
10,AHHHHHHGSKIATIVGARPQFIKMAPVSRELRKYFEEVVIHTGQHYDYEMDRIFFEQLNIPEPDYNLGVGSGSHGYQIGEMLKKIEEVLIKEKPDLVMVFGDTNSTLAGALAAAKLKIKVAHVEAGLRSFDKSMPEEINRILTDHVSDYLFAPTETAVKNLYNEGIRNGVYLTGDVMLDALLYNVKIAERCSEILNKLGLKPKEFCLATVHRAENTDNLERLKNIIDAFVECKETIVFPVHPRTEKVLKAYGLYDSLKKAENVILIKPVGYLDMLMLEKNAKKILTDSGGVQKEAYFLKVPCITLRERTEWVETVEDGWNVLVGADKEKILRAVREFEPSGETYTYKFGDGRASEKIAEVIKNVDR,not soluble
11,MGSDKIHHHHHHMTEQNQKQLGNTLWSIADQLRGAMDADDFRDYMLSFLFLRYLSDNYETAAKKELGRDYPDVGGDARKVPLALWYANNVDDIPAFEKQMRRKVHYVIQPAHLWNSIANLARTQNPDLLDTLQAGFKYIETESFESTFQGLFSEIDLSSPKLGKSYSDRNAKLCTIIQKIAEGLAAFSTNIDALGDAYEYLIGQFAAGSGKKAGEFYTPQQISDILSAIVTLDSQEPKTGTKKRLDSVLDFACGSGSLLLNVRKKVNQAGGSIGKIYGQEKNITTYNLARMNMLLHGVKDTEFEIFHGDTLLNEWDMLREQNPARKPSFDAVVANPPFSYRWEPTDALADDVRFKSHGLAPKSAADFAFLLHGFHYLKDEGVMAIILPHGVLFRGGAEERIRTKLLKDGHIDTVIGLPANLFYSTGIPVCILVLKKCKKPDDVLFINAAEHFVKGKRQNHLSDEHIAKIIETYQFRTEEPRYARRVDMAEIEKNDFNLNISRYISTAVDEEEIDLTATHANLVNIEKAIQQATAKHNEFLKELGMPLLP,not soluble
12,MTIPEQNNNPIVEISIPVSTQQALEKVNATKSAWLEARRQQKAAADNIATIRQRRAEMEATTNALNEEWRTLFRESQGVVSKEMKKLRTEIALGRETLEDFDELLAAQESENALLPQEAAELAGKYIHAHDTLVGIRAKQIWEDFMQSHGKALIQTLSLLKSTMGREASAVVGVVHSVNDPDTLLKDFIHKHITRPALTNDAMPEQDPVFKLAGVAPDYAARLDFSNKLSPAAMHKMKVRQERAEKEKAV,soluble
13,PDLTAALRDVRQQYESVAAKNLQEAEEWYKSKFADLSEAANRNNDALRQAKQESTEYRRQVQSLTCEVDALK,soluble
14,MSLNAQLNDLGPIKAVIFDMDGLLLDTEGIYTEITQLIAERYGRTYDWTIKQNIIGRGAGDLARYVVQALDLPISAEEFLVMREPLMRERFPRAQAMPGAQELVRHLKEHRIPIAVGTSSSQMSFGEKTTRHGDWFALFDTIVTADDPEVTAAKPAPDIFLTAARRLGVAPAECLVFEDSPFGVTAARAAGMSVIAVPDPAMADSKFAHAHGIIRSLKGFQPAACGLPHLHWDEGHHHHHH,soluble
15,GPGSMNIRQRKSERHKEVLRKLSQNGGNKNCFDCGMRGPLYVVSDFGILVCSGCSAVHRSFQHKVKGITMSEFTDDEIARFSVSGNDRARKVWLSTFHDQLPRSGNVMALKDHVHVVFEERRFWSAQELSA,soluble
16,QVQLVESGGGLVQPGGSLRLSCAASGFTFSSYAMSWFRQAPGKEREIVSAVSGSGGSTYYADSVRGRFTISRDNSKNTLYLQMNSLRAEDTAVYYCAREPRIPRPPSFDYWGQGTLVTVSS,soluble
17,MQETRLMENEYSVNLPTKFWYRGKTYNGFINLVNIFRATMILGTPGSGKSYAIVNQFIKQTIEKSYALYIYDFKFDDLSVIAYNHLLKYRYRYKVPPKFYVINFDNPRKSHRCNPLAPELMTDISDAYESSYTIMLNLNKSWVQKQGDFFVESPIVLFTAIIWFLKIYEGGKFCTFPHAIELLNKRYEDVFTILTSYPDLENYLSPFIDAWKGGASEQLQGQIASAKIPLSRLISPQLYWVMSGSDFTLDINNPKEPKVLCVGNNPDRISIYGAALGLYNSRIVKLINKKKQLKSCVIIDELPTIFFKGLDNLIATARSNKVAVVLGFQDFSQLKRDYGDKEAAVIMSTVGNVFSGQVVGETAKTLSERFGKILQKRESMSINRNDTSTSINTQLDSLIPASKISTLSQGMFVGAVADNFGETIEQKIFHAQIVVDNEAVQKETAAYQPIPEISSFLDENGNDTMEQQIQANYRQIKQDIVELVENELIRIENDPELKYLLNNEM,not soluble
18,MGNKIHPIGFRLGITRDWESRWYAGKKQYRHLLLEDQRIRGLLEKELYSAGLARVDIERAADNVAVTVHVAKPGVVIGRGGERIRVLREELAKLTGKNVALNVQEVQNPNLSAPLVAQRVAEQIERRFAVRRAIKQAVQRVMESGAKGAKVIVSGRIGGAEQARTEWAAQGRVPLHTLRANIDYGFALARTTYGVLGVKAYIFLGEVIGGQKPKARPELPKAEERPRRRRPAVRVKKEE,soluble
19,MADTGEVQFMKPFISEKSSKSLEIPLGFNEYFPAPFPITVDLLDYSGRSWTVRMKKRGEKVFLTVGWENFVKDNNLEDGKYLQFIYDRDRTFYVIIYGHNMCSEYRDFPQVAVEVDDYENGEEEEDGDDQDKHQ,soluble
20,MSLYKDDSLTLHTDLYQINMMQVYFEQGIHNRHAVFEVYFRKEPFNNGYAVFAGLQRMVEYLEQFQFSETDLAYLEELGYPENFLTYLKELRLELTIRSAKEGDLVFANEPIVQVEGPLGQCQLVETALLNIVNFQTLIATKAARIRSVIEDEPLLEFGTRRAQELDAAIWGTRAAMIGGADATSNVRAGKRFDIPVSGTHAHALVQAYGNDYDAFMAYAKTHKDCVFLVDTYDTLKVGVPTAIRVAKEMGDKINFLGVRLDSGDLAYLSKTVRQQLDDAGFTEAKIYASNDLDENTILNLKMQKAKIDVWGVGTKLITAYDQPALGAVYKIVSIEQEDGSMRDTIKLSNNAEKVSTPGKKQVWRITSREKGKSEGDYITFTDINVNELTEIEMFHPTYTYIKKTVKEFDAIPLLVDIFVKGELVYQLPTLAEIKAYAKKEFDKLWDEYKRVLNPQDYPVDLARDVWQNKMALIDNIRKDAYGKSEEGHHHHHH,soluble
21,MSLDKNRTMLLIVDINKGFAKEGALYSDRIEKLISPISNLANYALNSGIRVKAFTDYHTEDSIELKAYPKHCMKDTDEWELVDELNLEGIEVIKKNSTNGFLEENFILNKEEIDNVIIVGDCTDICIYQLAISLRAEFNRVNKDGEIYVPKKLVDTFDMPMHKANFMNYVFLNSMLDNGVKVIEDIILDEGHHHHHH,not soluble
22,MRLASMGEEDSTPGRRSKAYSRQGADVRPMKGGHGINLVGTLMAATERGANIVEGVVDFRPTDLRGSLRRGREANLIVFVVDTSGSMAARSRVRAVTGTITSMLNDAYQRRDKVAVIAVNGNKPTLVLNPTNSVEQAQQKLKDMPMGGRTPLAEGLLMAKDLMARELRKEPGRRAILMVMTDGQDTSDAGEAGIATAAETVVKSRLSGNVVIDCEGRLKVRKERAGVLAEMLGGVCVRLRDLNSEHIKMVINA,not soluble
